Results on 27 molecules are retold here after PMC10786891, “Massively parallel profiling of RNA-targeting CRISPR-Cas13d”.

The chains are these.
B1: target 1 insU 3' of 14,insC 3' of 13 (mixed)
RNA 1: CACCCGUGCAAAAAUGCAGGGGUCUAAAACUGAGCGGAUAACCUCUCUAUGG
RNA 2: GGGAAUGGAUCCACAUCUACGAAUUCGUACCAUAGAGAUGCGUUAUCCGCUCACCGAGAUCGGAAGAGCACACGU
B2: target 1 insC 3' of 13,insA 3' of 8 (mixed)
RNA 1: CACCCGUGCAAAAAUGCAGGGGUCUAAAACUGAGCGGAUAACCUCUCUAUGG
RNA 2: GGGAAUGGAUCCACAUCUACGAAUUCGUACCAUAGAGAGCGUUAUACCGCUCACCGAGAUCGGAAGAGCACACGU
B3: target 1 U3C,U10A (mixed)
RNA 1: CACCCGUGCAAAAAUGCAGGGGUCUAAAACUGAGCGGAUAACCUCUCUAUGG
RNA 2: GGGAAUGGAUCCACAUCUACGAAUUCGUACCAUAGAGAGGUAAUCCGCCCACCGAGAUCGGAAGAGCACACGU
B4: target 1 A16G,G17C (mixed)
RNA 1: CACCCGUGCAAAAAUGCAGGGGUCUAAAACUGAGCGGAUAACCUCUCUAUGG
RNA 2: GGGAAUGGAUCCACAUCUACGAAUUCGUACCAUACGGAGGUUAUCCGCUCACCGAGAUCGGAAGAGCACACGU
B5: target 1 A1U,U8G (mixed)
RNA 1: CACCCGUGCAAAAAUGCAGGGGUCUAAAACUGAGCGGAUAACCUCUCUAUGG
RNA 2: GGGAAUGGAUCCACAUCUACGAAUUCGUACCAUAGAGAGGUUAGCCGCUCUCCGAGAUCGGAAGAGCACACGU
B6: target 1 U10A,U11C (mixed)
RNA 1: CACCCGUGCAAAAAUGCAGGGGUCUAAAACUGAGCGGAUAACCUCUCUAUGG
RNA 2: GGGAAUGGAUCCACAUCUACGAAUUCGUACCAUAGAGAGGCAAUCCGCUCACCGAGAUCGGAAGAGCACACGU
B7: target 1 insG 3' of 9,insA 3' of 2 (mixed)
RNA 1: CACCCGUGCAAAAAUGCAGGGGUCUAAAACUGAGCGGAUAACCUCUCUAUGG
RNA 2: GGGAAUGGAUCCACAUCUACGAAUUCGUACCAUAGAGAGGUUAGUCCGCUCAACCGAGAUCGGAAGAGCACACGU
B8: target 1 U10C,G13A (mixed)
RNA 1: CACCCGUGCAAAAAUGCAGGGGUCUAAAACUGAGCGGAUAACCUCUCUAUGG
RNA 2: GGGAAUGGAUCCACAUCUACGAAUUCGUACCAUAGAGAAGUCAUCCGCUCACCGAGAUCGGAAGAGCACACGU
B9: target 1 insC 3' of 15,insU 3' of 5 (mixed)
RNA 1: CACCCGUGCAAAAAUGCAGGGGUCUAAAACUGAGCGGAUAACCUCUCUAUGG
RNA 2: GGGAAUGGAUCCACAUCUACGAAUUCGUACCAUAGAGCAGGUUAUCCGUCUCACCGAGAUCGGAAGAGCACACGU
B10: target 1 G12U,G17A (mixed)
RNA 1: CACCCGUGCAAAAAUGCAGGGGUCUAAAACUGAGCGGAUAACCUCUCUAUGG
RNA 2: GGGAAUGGAUCCACAUCUACGAAUUCGUACCAUAAAGAGUUUAUCCGCUCACCGAGAUCGGAAGAGCACACGU
B11: target 1 A9U,C22A (mixed)
RNA 1: CACCCGUGCAAAAAUGCAGGGGUCUAAAACUGAGCGGAUAACCUCUCUAUGG
RNA 2: GGGAAUGGAUCCACAUCUACGAAUUCGUAACAUAGAGAGGUUUUCCGCUCACCGAGAUCGGAAGAGCACACGU
B12: target 1 U19A,C22A (mixed)
RNA 1: CACCCGUGCAAAAAUGCAGGGGUCUAAAACUGAGCGGAUAACCUCUCUAUGG
RNA 2: GGGAAUGGAUCCACAUCUACGAAUUCGUAACAAAGAGAGGUUAUCCGCUCACCGAGAUCGGAAGAGCACACGU
B13: target 1 del14,del20 (mixed)
RNA 1: CACCCGUGCAAAAAUGCAGGGGUCUAAAACUGAGCGGAUAACCUCUCUAUGG
RNA 2: GGGAAUGGAUCCACAUCUACGAAUUCGUACCUAGAGGGUUAUCCGCUCACCGAGAUCGGAAGAGCACACGU
B14: target 1 insA 3' of 19,insG 3' of 2 (mixed)
RNA 1: CACCCGUGCAAAAAUGCAGGGGUCUAAAACUGAGCGGAUAACCUCUCUAUGG
RNA 2: GGGAAUGGAUCCACAUCUACGAAUUCGUACCAUAAGAGAGGUUAUCCGCUCGACCGAGAUCGGAAGAGCACACGU
B15: target 1 del2,del15 (mixed)
RNA 1: CACCCGUGCAAAAAUGCAGGGGUCUAAAACUGAGCGGAUAACCUCUCUAUGG
RNA 2: GGGAAUGGAUCCACAUCUACGAAUUCGUACCAUAGAAGGUUAUCCGCUACCGAGAUCGGAAGAGCACACGU
B16: target 1 insC 3' of 10,insG 3' of 3 (mixed)
RNA 1: CACCCGUGCAAAAAUGCAGGGGUCUAAAACUGAGCGGAUAACCUCUCUAUGG
RNA 2: GGGAAUGGAUCCACAUCUACGAAUUCGUACCAUAGAGAGGUUCAUCCGCUGCACCGAGAUCGGAAGAGCACACGU
B17: target 1 C2U,G5C (mixed)
RNA 1: CACCCGUGCAAAAAUGCAGGGGUCUAAAACUGAGCGGAUAACCUCUCUAUGG
RNA 2: GGGAAUGGAUCCACAUCUACGAAUUCGUACCAUAGAGAGGUUAUCCCCUUACCGAGAUCGGAAGAGCACACGU
B18: target 1 insC 3' of 16,insA 3' of 3 (mixed)
RNA 1: CACCCGUGCAAAAAUGCAGGGGUCUAAAACUGAGCGGAUAACCUCUCUAUGG
RNA 2: GGGAAUGGAUCCACAUCUACGAAUUCGUACCAUAGACGAGGUUAUCCGCUACACCGAGAUCGGAAGAGCACACGU
B19: target 1 insC 3' of 19,insA 3' of 10 (mixed)
RNA 1: CACCCGUGCAAAAAUGCAGGGGUCUAAAACUGAGCGGAUAACCUCUCUAUGG
RNA 2: GGGAAUGGAUCCACAUCUACGAAUUCGUACCAUCAGAGAGGUUAAUCCGCUCACCGAGAUCGGAAGAGCACACGU
B20: target 1 insA 3' of 13,insA 3' of 2 (mixed)
RNA 1: CACCCGUGCAAAAAUGCAGGGGUCUAAAACUGAGCGGAUAACCUCUCUAUGG
RNA 2: GGGAAUGGAUCCACAUCUACGAAUUCGUACCAUAGAGAGAGUUAUCCGCUCAACCGAGAUCGGAAGAGCACACGU
B21: target 1 U8G (mixed)
RNA 1: CACCCGUGCAAAAAUGCAGGGGUCUAAAACUGAGCGGAUAACCUCUCUAUGG
RNA 2: GGGAAUGGAUCCACAUCUACGAAUUCGUACCAUAGAGAGGUUAGCCGCUCACCGAGAUCGGAAGAGCACACGU
B22: target 1 insU 3' of 22,insU 3' of 22 (mixed)
RNA 1: CACCCGUGCAAAAAUGCAGGGGUCUAAAACUGAGCGGAUAACCUCUCUAUGG
RNA 2: GGGAAUGGAUCCACAUCUACGAAUUCGUACUUCAUAGAGAGGUUAUCCGCUCACCGAGAUCGGAAGAGCACACGU
B23: target 1 U3C,U11A (mixed)
RNA 1: CACCCGUGCAAAAAUGCAGGGGUCUAAAACUGAGCGGAUAACCUCUCUAUGG
RNA 2: GGGAAUGGAUCCACAUCUACGAAUUCGUACCAUAGAGAGGAUAUCCGCCCACCGAGAUCGGAAGAGCACACGU
B24: target 1 insU 3' of 22,insA 3' of 3 (mixed)
RNA 1: CACCCGUGCAAAAAUGCAGGGGUCUAAAACUGAGCGGAUAACCUCUCUAUGG
RNA 2: GGGAAUGGAUCCACAUCUACGAAUUCGUACUCAUAGAGAGGUUAUCCGCUACACCGAGAUCGGAAGAGCACACGU
B25: target 1 G15A,A16U (mixed)
RNA 1: CACCCGUGCAAAAAUGCAGGGGUCUAAAACUGAGCGGAUAACCUCUCUAUGG
RNA 2: GGGAAUGGAUCCACAUCUACGAAUUCGUACCAUAGUAAGGUUAUCCGCUCACCGAGAUCGGAAGAGCACACGU
B26: target 1 insC 3' of 11,insU 3' of 4 (mixed)
RNA 1: CACCCGUGCAAAAAUGCAGGGGUCUAAAACUGAGCGGAUAACCUCUCUAUGG
RNA 2: GGGAAUGGAUCCACAUCUACGAAUUCGUACCAUAGAGAGGUCUAUCCGCUUCACCGAGAUCGGAAGAGCACACGU
B27: target 1 G17U,C22U (mixed)
RNA 1: CACCCGUGCAAAAAUGCAGGGGUCUAAAACUGAGCGGAUAACCUCUCUAUGG
RNA 2: GGGAAUGGAUCCACAUCUACGAAUUCGUAUCAUAUAGAGGUUAUCCGCUCACCGAGAUCGGAAGAGCACACGU

In the data set the target is T1, EsCas13d, nuclease-dead (Eubacterium siraeum, UniProt B0MS50, R295A;H300A;R849A;H854A).
T1 sequence: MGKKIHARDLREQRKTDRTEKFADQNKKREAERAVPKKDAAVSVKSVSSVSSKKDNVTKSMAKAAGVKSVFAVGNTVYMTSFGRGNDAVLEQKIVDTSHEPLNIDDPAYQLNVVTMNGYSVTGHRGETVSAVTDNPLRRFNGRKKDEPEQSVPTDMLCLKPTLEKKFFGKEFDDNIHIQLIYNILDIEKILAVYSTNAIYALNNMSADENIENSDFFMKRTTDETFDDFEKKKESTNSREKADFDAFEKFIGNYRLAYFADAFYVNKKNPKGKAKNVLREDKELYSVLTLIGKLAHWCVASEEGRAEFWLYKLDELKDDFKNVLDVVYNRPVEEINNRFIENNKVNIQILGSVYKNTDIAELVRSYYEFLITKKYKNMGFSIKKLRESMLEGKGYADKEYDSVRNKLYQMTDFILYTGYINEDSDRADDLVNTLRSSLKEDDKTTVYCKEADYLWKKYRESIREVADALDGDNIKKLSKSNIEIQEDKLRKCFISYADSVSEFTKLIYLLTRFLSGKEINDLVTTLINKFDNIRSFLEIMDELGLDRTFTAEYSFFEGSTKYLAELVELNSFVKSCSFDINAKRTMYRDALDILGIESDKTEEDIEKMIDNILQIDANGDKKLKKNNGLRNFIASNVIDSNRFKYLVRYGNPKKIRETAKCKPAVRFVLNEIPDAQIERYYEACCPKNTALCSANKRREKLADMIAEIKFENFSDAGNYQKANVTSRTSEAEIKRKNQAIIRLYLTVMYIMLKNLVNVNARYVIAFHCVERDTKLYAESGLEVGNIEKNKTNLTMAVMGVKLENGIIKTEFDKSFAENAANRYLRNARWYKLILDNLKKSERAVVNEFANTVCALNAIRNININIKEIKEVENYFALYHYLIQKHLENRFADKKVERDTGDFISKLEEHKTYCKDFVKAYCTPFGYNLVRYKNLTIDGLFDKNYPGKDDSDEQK
Briefly: crRNA (strand 1, pre-loaded); Mg2+; 40 mM Tris-HCl pH 7.5, 150 mM NaCl, 6 mM MgCl2, 1 mM DTT, 0.1% Tween-20, 0.2 mg/ml BSA; 25 C; 10 min per concentration, then washed. The note with it: tags: His6-TwinStrep-SUMO cleaved; N-terminal SNAP kept (SNAP-Surface 488); label: 3' end held by stalled T7 RNA polymerase.
Turning to B1, the Kd (usually the concentration at which binding is half-saturated) was 29 ± 5 nM.
In turn, B2 showed a Kd of 16.6 ± 0.6 nM.
In turn, B3 displayed a Kd of 90 ± 40 nM.
Consider B4, for which binding was put at a Kd of 76 ± 10 nM.
In turn, B5 came in with a Kd of 24.6 ± 1 nM.
Then B6, with 9.96 ± 0.33 nM; and B7, with 21.2 ± 2.5 nM; and B8, with 13.6 ± 1 nM.
As to B9, binding was put at a Kd of 16.6 ± 1.8 nM.
Take B10: the affinity, expressed as Kd, was 59 ± 8 nM.
B11 had a Kd of 16.9 ± 0.9 nM.
Then B12, with 56 ± 7 nM; and B13, with 72 ± 25 nM; and B14, with 19.5 ± 1.3 nM.
Then B15, with 42 ± 7 nM.
The molecule B16 displayed a Kd of 9.5 ± 0.5 nM.
Then B17, with 12.4 ± 0.8 nM; and B18, with 62 ± 10 nM; and B19, with 57 ± 5 nM.
Then B20, with 3.1 ± 0.28 nM.
The molecule B21 had a Kd of 19.2 ± 0.9 nM.
The molecule B22 came in with a Kd of 31 ± 8 nM.
Molecule B23 showed a Kd of approximately 58 nM.
The molecule B24 returned a Kd of 31.5 ± 2.8 nM.
Molecule B25 had a Kd of 24.3 ± 2.3 nM.
With B26, the Kd was determined as 23.2 ± 1.8 nM.
Then B27, with 32.4 ± 2.8 nM.
